The results in this text go back to the supplement of paper PMC9732359.

± gives the uncertainty stated by the source.

A short description of this series: protein stability index of a GFP-peptide fusion (yeast GPS) (PSI 1-4); higher = more stable; sorted into four equal gates, so the index is relative within each strain. The gist of the method:
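Plasmids in a pooled yeast library fused tiled 17-residue yeast protein peptides downstream of GFP and also expressed Cherry. Mid-log cultures grown without leucine were sorted into four equal gates by GFP/Cherry fluorescence ratio. Each gate's plasmids were PCR-amplified and Illumina-sequenced, and reads were matched to strains by barcodes. The protein stability index is derived by multiplying each gate's read frequency by its gate number and summing the results.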

As for AASSQVSIVKLDTQLIT [SNF12], the protein stability index runs as follows: (doa10∆) 1.69 ± 0.08; (pdr5∆) 1.74 ± 0.07; (san1∆) 1.64 ± 0.16; (ubr1∆) 2.02 ± 0.11.

VSTETFEQPSQREEAKK [RPL27A] displayed a protein stability index (doa10∆) of 2.9 ± 0.061, a protein stability index (pdr5∆) of 2.73 ± 0.07, a protein stability index (san1∆) of 2.73 ± 0.054 and a protein stability index (ubr1∆) of 3.1 ± 0.067.

Sequence LKGLNGFPSAPQPLFME [YMR153W/NUP53] showed a protein stability index (doa10∆) of 2.53 ± 0.067, a protein stability index (pdr5∆) of 3.04 ± 0.066, a protein stability index (san1∆) of 2.85 ± 0.067 and a protein stability index (ubr1∆) of 2.69 ± 0.062.

As for LHIHGSSNPLGITGNLD [COB], the protein stability index is, setting by setting: (doa10∆) 2.92 ± 0.087; (pdr5∆) 2.91 ± 0.078; (san1∆) 2.7 ± 0.05; (ubr1∆) 2.66 ± 0.054.

For the sequence IQRETLLPTNNGQPLNQ [GRR1], the protein stability index runs as follows: (doa10∆) 2.53 ± 0.072; (pdr5∆) 2.91 ± 0.071; (san1∆) 2.64 ± 0.06; (ubr1∆) 2.65 ± 0.057.

On to DDFTDAIQFVKENELLF [YCS4], for which the protein stability index reads like this: (doa10∆) 2.1 ± 0.082; (pdr5∆) 2.04 ± 0.061; (san1∆) 2.58 ± 0.16; (ubr1∆) 1.92 ± 0.07.

Consider KDQIQAGKWFDPVLDWR [SIR4], for which the protein stability index was 3.56 ± 0.14 (doa10∆), 3.49 ± 0.094 (pdr5∆), 2.95 ± 0.19 (san1∆) and 3.22 ± 0.07 (ubr1∆).

As for KGGEQISQLYSDAVMAE [YJL041W/NSP1], the protein stability index (doa10∆) is 2.25 ± 0.12, the protein stability index (pdr5∆) is 2.01 ± 0.12, the protein stability index (san1∆) was found to be 2.19 ± 0.14 and the protein stability index (ubr1∆) was found to be 2.33 ± 0.13.

NQSSFNFGNNGAGGLNP [YOR098C/NUP1]: the protein stability index by setting is: (doa10∆) 3.15 ± 0.069; (pdr5∆) 3.1 ± 0.076; (san1∆) 3.2 ± 0.045; (ubr1∆) 3.25 ± 0.064.

On to LKWIDTASKFGKGRFQT [RPL3], for which the protein stability index runs as follows: (doa10∆) 3.34 ± 0.11; (pdr5∆) 3.06 ± 0.094; (san1∆) 3.11 ± 0.071; (ubr1∆) 3.09 ± 0.065.

As for SELQRLSHENNVMLEKI [RPT5], the protein stability index is 3 ± 0.11 (doa10∆), 3.1 ± 0.068 (pdr5∆), 2.89 ± 0.063 (san1∆) and 2.9 ± 0.051 (ubr1∆).

Turning to SHNWAAKAKRRHTTGTG [RPL37B], the protein stability index runs as follows: (doa10∆) 3.29 ± 0.1; (pdr5∆) 2.92 ± 0.058; (san1∆) 3.33 ± 0.071; (ubr1∆) 3.35 ± 0.056.

As to KVGAEMMMQQQLKNVQL [MED2], the protein stability index reads like this: (doa10∆) 2.54 ± 0.11; (pdr5∆) 2.6 ± 0.085; (san1∆) 2.96 ± 0.07; (ubr1∆) 2.66 ± 0.085.

In the case of TPSTSSNGEFIPHIFYS [CSE2], the protein stability index reads like this: (doa10∆) 2.36 ± 0.054; (pdr5∆) 2.44 ± 0.043; (san1∆) 2.62 ± 0.044; (ubr1∆) 2.82 ± 0.048.

Take NHMLIDSLNQLEIRNKI [RGR1]: the protein stability index came out at 2.97 ± 0.097 (doa10∆), 3.04 ± 0.069 (pdr5∆), 2.92 ± 0.079 (san1∆) and 3.08 ± 0.076 (ubr1∆).

For VSSSKNKKSEENEMIKP [SWP82], the protein stability index is, setting by setting: (doa10∆) 2.72 ± 0.25; (pdr5∆) 3.34 ± 0.14; (san1∆) 3.18 ± 0.14; (ubr1∆) 3.49 ± 0.28.

TNGKPDMAILERYYELA [ARP7] registered a protein stability index (doa10∆) of 3.23 ± 0.088, a protein stability index (pdr5∆) of 3.1 ± 0.097, a protein stability index (san1∆) of 3.01 ± 0.075 and a protein stability index (ubr1∆) of 3.19 ± 0.06.

Consider NEEGDWSCIVVENWIID [ITC1], for which the protein stability index is, setting by setting: (doa10∆) 2.38 ± 0.074; (pdr5∆) 2.48 ± 0.082; (san1∆) 2.68 ± 0.12; (ubr1∆) 2.95 ± 0.11.

For the sequence SLNTKKNEKLILEESLN [SMC3], the protein stability index by setting is: (doa10∆) 2.18 ± 0.064; (pdr5∆) 2 ± 0.074; (san1∆) 2.59 ± 0.15; (ubr1∆) 2.6 ± 0.078.

KCGVISPRFNVKIGDIE [RPS22A]: the protein stability index by setting is: (doa10∆) 3.28 ± 0.1; (pdr5∆) 3.35 ± 0.093; (san1∆) 2.78 ± 0.11; (ubr1∆) 3.43 ± 0.079.

Take QVLFQGLIYSFNEENGE [POP1]: the protein stability index by setting is: (doa10∆) 3.1 ± 0.13; (pdr5∆) 3.24 ± 0.18; (san1∆) 2.77 ± 0.26; (ubr1∆) 3.02 ± 0.18.

Regarding DITVHGEQIIVHPVNER [RRP45], the protein stability index runs as follows: (doa10∆) 2.23 ± 0.078; (pdr5∆) 2.15 ± 0.1; (san1∆) 1.82 ± 0.14; (ubr1∆) 1.9 ± 0.083.

For DSNTTEILTSVDVLGTH [SIR4], the protein stability index was 2.92 ± 0.063 (doa10∆), 2.96 ± 0.058 (pdr5∆), 2.93 ± 0.06 (san1∆) and 3.04 ± 0.036 (ubr1∆).

Take LQWHAMIELICSSATVP [AAR2]: the protein stability index (doa10∆) worked out at 1.55 ± 0.084, the protein stability index (pdr5∆) is 1.69 ± 0.073, the protein stability index (san1∆) is 1.59 ± 0.11 and the protein stability index (ubr1∆) was 1.75 ± 0.057.
